Measured values published in patent US20240010735A1 (EISAI R AND D MANAGEMENT, published 2024).

Assays:
Assay in all cases: ELISA: SEAP-His proteins (1 nM) captured on anti-6-His antibody, antibody B 10 µg/mL with human IgG 100 µg/mL, HRP anti-human IgG, OD450 as % of human EphA4-SEAP-His
[1] = target: T1, human EphA7 extracellular region-SEAP-His protein (human, UniProt Q15375 28-555)
T1 construct: extracellular domain; also called Eph receptor extracellular region-SEAP-His protein; not shown: secretory alkaline phosphatase (SEAP); histidine tag
T1 sequence (looked up): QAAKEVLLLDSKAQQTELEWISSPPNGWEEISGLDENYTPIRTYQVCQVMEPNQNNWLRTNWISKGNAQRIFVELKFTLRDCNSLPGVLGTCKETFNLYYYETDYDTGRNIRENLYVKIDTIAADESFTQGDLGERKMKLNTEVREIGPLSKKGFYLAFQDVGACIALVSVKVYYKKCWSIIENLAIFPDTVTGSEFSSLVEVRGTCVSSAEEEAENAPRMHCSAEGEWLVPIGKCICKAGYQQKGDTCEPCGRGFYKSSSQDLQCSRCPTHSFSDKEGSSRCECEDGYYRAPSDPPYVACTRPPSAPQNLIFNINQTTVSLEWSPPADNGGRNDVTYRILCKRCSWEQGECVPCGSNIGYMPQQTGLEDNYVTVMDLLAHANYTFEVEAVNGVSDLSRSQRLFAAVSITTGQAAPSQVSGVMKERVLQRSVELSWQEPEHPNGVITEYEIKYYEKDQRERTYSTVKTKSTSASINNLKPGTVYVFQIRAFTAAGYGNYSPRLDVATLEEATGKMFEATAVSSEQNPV

[2] = target: T2, human EphA5 extracellular region-SEAP-His protein (human, UniProt P54756 25-573)
T2 construct: extracellular domain; also called Eph receptor extracellular region-SEAP-His protein; not shown: secretory alkaline phosphatase (SEAP); histidine tag
T2 sequence (P54756 25-573): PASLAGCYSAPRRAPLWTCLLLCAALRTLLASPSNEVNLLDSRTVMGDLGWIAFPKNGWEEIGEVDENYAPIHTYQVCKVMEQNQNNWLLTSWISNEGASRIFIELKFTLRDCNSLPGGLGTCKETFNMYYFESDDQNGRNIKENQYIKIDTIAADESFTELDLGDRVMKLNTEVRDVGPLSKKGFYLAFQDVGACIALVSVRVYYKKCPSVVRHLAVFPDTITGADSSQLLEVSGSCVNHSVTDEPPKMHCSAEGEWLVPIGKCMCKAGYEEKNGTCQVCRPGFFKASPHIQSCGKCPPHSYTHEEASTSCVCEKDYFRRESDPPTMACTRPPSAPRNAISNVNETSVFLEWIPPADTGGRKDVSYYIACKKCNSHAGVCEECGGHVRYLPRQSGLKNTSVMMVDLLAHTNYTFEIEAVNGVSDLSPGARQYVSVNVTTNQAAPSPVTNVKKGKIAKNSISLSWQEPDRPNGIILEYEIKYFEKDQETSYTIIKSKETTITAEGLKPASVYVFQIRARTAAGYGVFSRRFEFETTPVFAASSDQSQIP

[3] = target: T3, human EphA3 extracellular region-SEAP-His protein (human, UniProt P29320 21-541)
T3 construct: extracellular domain; also called Eph receptor extracellular region-SEAP-His protein; not shown: secretory alkaline phosphatase (SEAP); histidine tag
T3 sequence (looked up): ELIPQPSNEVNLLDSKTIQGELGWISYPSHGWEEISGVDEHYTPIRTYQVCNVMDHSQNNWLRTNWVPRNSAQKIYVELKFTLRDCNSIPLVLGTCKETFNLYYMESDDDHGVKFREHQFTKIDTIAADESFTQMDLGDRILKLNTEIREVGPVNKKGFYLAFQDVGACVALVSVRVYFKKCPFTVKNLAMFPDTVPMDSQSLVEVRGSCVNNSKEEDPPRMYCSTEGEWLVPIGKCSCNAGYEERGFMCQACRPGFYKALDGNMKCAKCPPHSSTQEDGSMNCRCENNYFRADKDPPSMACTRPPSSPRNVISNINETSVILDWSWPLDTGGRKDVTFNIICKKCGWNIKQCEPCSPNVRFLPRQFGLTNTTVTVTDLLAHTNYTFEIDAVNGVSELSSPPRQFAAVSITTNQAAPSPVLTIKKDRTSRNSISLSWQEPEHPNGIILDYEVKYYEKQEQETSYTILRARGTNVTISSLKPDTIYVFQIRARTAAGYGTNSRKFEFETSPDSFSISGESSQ

[4] = target: T4, human EphB6 extracellular region-SEAP-His protein (human, UniProt O15197 32-594)
T4 construct: extracellular domain; also called Eph receptor extracellular region-SEAP-His protein; not shown: secretory alkaline phosphatase (SEAP); histidine tag
T4 sequence (looked up): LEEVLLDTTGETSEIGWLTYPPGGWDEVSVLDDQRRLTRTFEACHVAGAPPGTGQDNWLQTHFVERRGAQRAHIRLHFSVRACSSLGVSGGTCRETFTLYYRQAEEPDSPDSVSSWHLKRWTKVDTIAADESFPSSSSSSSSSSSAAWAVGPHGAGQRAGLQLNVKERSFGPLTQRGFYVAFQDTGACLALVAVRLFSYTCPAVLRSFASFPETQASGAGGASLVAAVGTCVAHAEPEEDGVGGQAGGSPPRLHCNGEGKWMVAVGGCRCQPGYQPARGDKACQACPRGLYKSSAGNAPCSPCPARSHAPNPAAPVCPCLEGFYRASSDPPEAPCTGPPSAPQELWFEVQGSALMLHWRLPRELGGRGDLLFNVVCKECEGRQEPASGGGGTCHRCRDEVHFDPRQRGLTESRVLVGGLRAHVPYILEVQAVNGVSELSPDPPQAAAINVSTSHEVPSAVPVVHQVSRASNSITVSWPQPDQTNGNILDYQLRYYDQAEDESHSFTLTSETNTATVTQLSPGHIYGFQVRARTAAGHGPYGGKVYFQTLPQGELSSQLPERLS

[5] = target: T5, human EphB2 extracellular region-SEAP-His protein (human, UniProt P29323 19-543)
T5 construct: extracellular domain; also called Eph receptor extracellular region-SEAP-His protein; not shown: secretory alkaline phosphatase (SEAP); histidine tag
T5 sequence (looked up): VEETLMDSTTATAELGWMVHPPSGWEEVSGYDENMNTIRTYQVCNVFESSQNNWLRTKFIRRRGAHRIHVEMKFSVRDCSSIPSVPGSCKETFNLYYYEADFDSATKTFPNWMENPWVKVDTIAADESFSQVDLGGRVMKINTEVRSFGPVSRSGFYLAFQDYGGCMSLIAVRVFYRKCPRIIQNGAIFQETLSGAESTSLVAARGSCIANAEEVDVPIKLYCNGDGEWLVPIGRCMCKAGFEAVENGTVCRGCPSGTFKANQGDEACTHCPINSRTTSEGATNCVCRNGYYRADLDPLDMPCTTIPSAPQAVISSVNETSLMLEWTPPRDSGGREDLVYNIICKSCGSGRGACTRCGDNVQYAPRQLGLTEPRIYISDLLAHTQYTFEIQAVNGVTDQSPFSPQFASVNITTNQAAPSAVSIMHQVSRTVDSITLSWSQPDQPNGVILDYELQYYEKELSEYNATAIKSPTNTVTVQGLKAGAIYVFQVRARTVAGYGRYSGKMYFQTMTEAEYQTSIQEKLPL

Measured: binding result

B1: humanized anti-EphA4 monoclonal antibody (antibody B) (antibody, human IgG2, V domains shown)
VH: QVQLVESGGGVVQPGRSLRLSCAVSGFSLTRFGVHWVRQAPGKGLEWVAVIWRGGSTDYNAAFMSRLTISKDNSKNTVYLQMNSLRAEDTAVYYCAKESLFGVYYDYGYYSMDYWGQGTTVTVSS
VL: DIQMTQSPSSLSASVGDRVTITCRASQEISGYLSWLQQKPGKAPKRLIYAASTLDSGVPSRFSGSRSGTEYTLTISSLQPEDFATYYCLQYASYPLTFGGGTKVEIKR
notes: expressed in Expi293F cells; also called humanized antibody of antibody A; HK2-42 / L1-8
no binding (tested: 10 µg/mL): all assays above
